Measured values: IntAct's records for PubMed 18287031

B1: Protein aveugle (Drosophila melanogaster (Fruit fly)), Q8ML92 (parent)
chain: MGEETINSTQNKTRTKTTRPKAVYLWTVSDVLKWYRRHCGEYTQYEQLFAQHDITGRALLRITDSSLQRMGVTDNRDREAIWREIVKQRLKTDIMEIRDMERLNIY
B2: Connector enhancer of kinase suppressor of ras 2 (Homo sapiens), Q8WXI2 (parent)
chain: MALIMEPVSKWSPSQVVDWMKGLDDCLQQYIKNFEREKISGDQLLRITHQELEDLGVSRIGHQELILEAVDLLCALNYGLETENLKTLSHKLNASAKNLQNFITGRRRSGHYDGRTSRKLPNDFLTSVVDLIGAAKSLLAWLDRSPFAAVTDYSVTRNNVIQLCLELTTIVQQDCTVYETENKILHVCKTLSGVCDHIISLSSDPLVSQSAHLEVIQLANIKPSEGLGMYIKSTYDGLHVITGTTENSPADRCKKIHAGDEVIQVNHQTVVGWQLKNLVNALREDPSGVILTLKKRPQSMLTSAPALLKNMRWKPLALQPLIPRSPTSSVATPSSTISTPTKRDSSALQDLYIPPPPAEPYIPRDEKGNLPCEDLRGHMVGKPVHKGSESPNSFLDQEYRKRFNIVEEDTVLYCYEYEKGRSSSQGRRESTPTYGKLRPISMPVEYNWVGDYEDPNKMKRDSRRENSLLRYMSNEKIAQEEYMFQRNSKKDTGKKSKKKGDKSNSPTHYSLLPSLQMDALRQDIMGTPVPETTLYHTFQQSSLQHKSKKKNKGPIAGKSKRRISCKDLGRGDCEGWLWKKKDAKSYFSQKWKKYWFVLKDASLYWYINEEDEKAEGFISLPEFKIDRASECRKKYAFKACHPKIKSFYFAAEHLDDMNRWLNRINMLTAGYAERERIKQEQDYWSESDKEEADTPSTPKQDSPPPPYDTYPRPPSMSCASPYVEAKHSRLSSTETSQSQSSHEEFRQEVTGSSAVSPIRKTASQRRSWQDLIETPLTSSGLHYLQTLPLEDSVFSDSAAISPEHRRQSTLPTQKCHLQDHYGPYPLAESERMQVLNGNGGKPRSFTLPRDSGFNHCCLNAPVSACDPQDDVQPPEVEEEEEEEEEEGEAAGENIGEKSESREEKLGDSLQDLYRALEQASLSPLGEHRISTKMEYKLSFIKRCNDPVMNEKLHRLRILKSTLKAREGEVAIIDKVLDNPDLTSKEFQQWKQMYLDLFLDICQNTTSNDPLSISSEVDVITSSLAHTHSYIETHV
partner: B1 chain

Variants of: B1
Conditions: with cnkr2_human CNKSR2, Q8WXI2

Row | Variant | effect of a mutation on the interaction
1 | MGEETINSTQNKTRTKTTRPKAVYLWTVSDVLKWYRRHCGEYTQYEQLFAQHDITGRALLEITDSSLQRMGVTDNRDREAIWREIVKQRLKTDIMEIRDMERLNIY [R61E] | decreasing interaction
2 | MGEETINSTQNKTRTKTTRPKAVYLWTVSDVLKWYRRHCGEYTQYEQLFAQHDITGEALLEITDSSLQRMGVTDNRDREAIWREIVKQRLKTDIMEIRDMERLNIY [R57E;R61E] | disrupting interaction
3 | MGEETINSTQNKTRTKTTRPKAVYLWTVSDVLKWYRRHCGEYTQYEQLFAQHDITGAALLAITDSSLQRMGVTDNRDREAIWREIVKQRLKTDIMEIRDMERLNIY [R57A;R61A] | decreasing interaction

Variants of: B2
Conditions: with ave_drome ave, Q8ML92

Row | Variant | effect of a mutation on the interaction
4 | E68R;D71R | disrupting interaction
5 | I60A | decreasing interaction
6 | D71R | decreasing interaction
